According to publication PMC4354731:

Experiments:
[1] = substrate: CC(C)=CCC1=C(O)C(=O)c2ccccc2C1=O; test: lapachol:fumarate oxidoreductase steady-state kinetics in membranes; type: biochemical, Escherichia coli; details: [3Fe-4S], [4Fe-4S], [2Fe-2S] clusters; FAD; heme b
[2] = substrate: COC1=C(OC)C(=O)C(C)=CC1=O; test: succinate:Q0 oxidoreductase steady-state kinetics in membranes; type: biochemical, Escherichia coli; details: [3Fe-4S], [4Fe-4S], [2Fe-2S] clusters; FAD; heme b

B1: succinate dehydrogenase (SdhCDAB), SdhB subunit (Escherichia coli K-12) (protein)
chain 1: MRLEFSIYRYNPDVDDAPRMQDYTLEADEGRDMMLLDALIQLKEKDPSLSFRRSCREGVCGSDGLNMNGKNGLACITPISALNQPGKKIVIRPLPGLPVIRDLVVDMGQFYAQYEKIKPYLLNNGQNPPAREHLQMPEQREKLDGLYECILCACCSTSCPSFWWNPDKFIGPAGLLAAYRFLIDSRDTETDSRLDGLSDAFSVFRCHSIMNCVSVCPKGLNPTRAIGHIKSMLLQRNA
chain 2: MIRNVKKQRPVNLDLQTIRFPITAIASILHRVSGVITFVAVGILLWLLGTSLSSPEGFEQASAIMGSFFVKFIMWGILTALAYHVVVGIRHMMMDFGYLEETFEAGKRSAKISFVITVVLSLLAGVLVW
chain 3: MVSNASALGRNGVHDFILVRATAIVLTLYIIYMVGFFATSGELTYEVWIGFFASAFTKVFTLLALFSILIHAWIGMWQVLTDYVKPLALRLMLQLVIVVALVVYVIYGFVVVWGV
- Km [1]: 100 µM
- kcat [1]: 11.9 s⁻¹
- Km [2]: 150 µM
- kcat [2]: 33.9 s⁻¹
